Experiments:
[1] = target: cynomolgus monkey IL-5 (cynomolgus monkey); assay: cell-based or functional assay
[2] = target: recombinant human IL-5 (human) (UniProt P05113); assay: cell-based or functional assay

IC50, inhibition of IL-5 driven proliferation of TF-1.6G4 cells (Mean, pM) [1]: 584 pM | IC50, inhibition of IL-5 driven proliferation of TF-1.6G4 cells (Mean, pM) [2]: 534 pM
Substance: Mepolizumab (antibody)
